Results published in patent publication US20040006018A1 (Genentech, published 2004).

Columns and labels:
[1] = molecular target: T1, Mouse LIF receptor on mouse M1 cells (LIF receptor complex with gp130) (mouse, UniProt P42703 44-1092; Q00560 23-917); test: conditioned medium competing for 125I-human LIF binding to M1 cells
T1 construct: whole, on cells; Endogenous receptor on M1 cells; also called LIFRβ

[2] = molecular target: T2, OSM specific receptor (oncostatin M receptor) on human WI-26 VA4 cells (human, UniProt Q99650 28-979); test: competition for 125I-human OSM binding to WI-26 VA4 cells
T2 construct: whole, on cells; Endogenous receptor on cells; further subunits not described for this assay; also called specific OSM Receptor; WI-26 cells
T2 sequence (looked up): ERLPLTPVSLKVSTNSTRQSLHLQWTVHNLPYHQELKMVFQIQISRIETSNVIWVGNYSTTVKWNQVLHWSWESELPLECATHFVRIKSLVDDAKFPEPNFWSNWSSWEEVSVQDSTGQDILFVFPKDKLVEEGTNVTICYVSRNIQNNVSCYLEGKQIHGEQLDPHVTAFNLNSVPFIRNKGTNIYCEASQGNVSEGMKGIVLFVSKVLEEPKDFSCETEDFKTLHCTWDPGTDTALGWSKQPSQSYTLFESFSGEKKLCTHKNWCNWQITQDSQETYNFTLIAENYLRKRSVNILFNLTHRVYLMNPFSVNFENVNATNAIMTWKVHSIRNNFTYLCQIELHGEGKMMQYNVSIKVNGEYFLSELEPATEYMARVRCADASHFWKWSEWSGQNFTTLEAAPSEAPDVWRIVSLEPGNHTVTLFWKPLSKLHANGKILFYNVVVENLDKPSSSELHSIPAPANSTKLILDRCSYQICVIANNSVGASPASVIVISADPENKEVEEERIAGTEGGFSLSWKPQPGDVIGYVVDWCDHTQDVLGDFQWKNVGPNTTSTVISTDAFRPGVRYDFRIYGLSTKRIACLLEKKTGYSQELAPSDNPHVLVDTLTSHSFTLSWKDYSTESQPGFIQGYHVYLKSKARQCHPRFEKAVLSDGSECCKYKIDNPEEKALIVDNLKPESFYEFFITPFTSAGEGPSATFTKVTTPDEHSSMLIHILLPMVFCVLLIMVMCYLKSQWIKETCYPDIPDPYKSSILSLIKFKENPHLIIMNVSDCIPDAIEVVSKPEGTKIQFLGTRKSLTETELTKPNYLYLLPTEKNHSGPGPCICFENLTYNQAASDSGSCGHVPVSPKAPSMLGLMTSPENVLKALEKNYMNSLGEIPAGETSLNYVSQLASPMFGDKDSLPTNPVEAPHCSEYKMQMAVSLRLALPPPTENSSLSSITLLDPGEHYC

[3] = molecular target: T3, Human LIF receptor on human Hela cells (human, UniProt P42702 45-1097); test: conditioned medium competing for 125I-human LIF binding to Hela cells
T3 construct: whole, on cells; Endogenous receptor on cells; other subunits (gp130) not examined on these cells
T3 sequence (looked up): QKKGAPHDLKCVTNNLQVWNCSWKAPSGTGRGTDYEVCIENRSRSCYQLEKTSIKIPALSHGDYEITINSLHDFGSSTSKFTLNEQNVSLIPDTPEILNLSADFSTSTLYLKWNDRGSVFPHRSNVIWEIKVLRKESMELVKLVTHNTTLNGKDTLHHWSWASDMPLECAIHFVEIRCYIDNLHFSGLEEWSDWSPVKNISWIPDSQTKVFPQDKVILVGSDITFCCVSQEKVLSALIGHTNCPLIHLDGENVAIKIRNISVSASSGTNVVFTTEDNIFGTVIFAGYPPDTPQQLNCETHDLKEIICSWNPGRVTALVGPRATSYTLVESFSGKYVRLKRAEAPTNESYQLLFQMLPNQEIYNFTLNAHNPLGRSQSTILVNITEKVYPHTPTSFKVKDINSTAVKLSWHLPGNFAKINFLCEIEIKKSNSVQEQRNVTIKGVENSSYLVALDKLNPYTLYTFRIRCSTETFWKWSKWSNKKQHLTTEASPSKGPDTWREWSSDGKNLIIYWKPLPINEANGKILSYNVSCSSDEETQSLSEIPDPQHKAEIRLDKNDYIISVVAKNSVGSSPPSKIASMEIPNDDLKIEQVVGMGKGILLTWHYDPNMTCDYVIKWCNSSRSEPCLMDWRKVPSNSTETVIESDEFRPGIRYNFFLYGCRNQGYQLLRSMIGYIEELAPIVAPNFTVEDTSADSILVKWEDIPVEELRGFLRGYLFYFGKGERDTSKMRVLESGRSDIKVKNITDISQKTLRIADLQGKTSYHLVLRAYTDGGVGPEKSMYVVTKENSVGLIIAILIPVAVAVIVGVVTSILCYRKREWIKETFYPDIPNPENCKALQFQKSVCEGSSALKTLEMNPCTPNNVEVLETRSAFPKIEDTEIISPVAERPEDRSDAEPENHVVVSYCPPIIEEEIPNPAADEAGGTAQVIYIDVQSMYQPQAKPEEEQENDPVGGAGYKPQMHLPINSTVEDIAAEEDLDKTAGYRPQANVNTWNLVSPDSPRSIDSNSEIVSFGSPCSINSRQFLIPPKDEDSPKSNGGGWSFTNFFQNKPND

T1 sequence (Q00560 23-917, one chain of several): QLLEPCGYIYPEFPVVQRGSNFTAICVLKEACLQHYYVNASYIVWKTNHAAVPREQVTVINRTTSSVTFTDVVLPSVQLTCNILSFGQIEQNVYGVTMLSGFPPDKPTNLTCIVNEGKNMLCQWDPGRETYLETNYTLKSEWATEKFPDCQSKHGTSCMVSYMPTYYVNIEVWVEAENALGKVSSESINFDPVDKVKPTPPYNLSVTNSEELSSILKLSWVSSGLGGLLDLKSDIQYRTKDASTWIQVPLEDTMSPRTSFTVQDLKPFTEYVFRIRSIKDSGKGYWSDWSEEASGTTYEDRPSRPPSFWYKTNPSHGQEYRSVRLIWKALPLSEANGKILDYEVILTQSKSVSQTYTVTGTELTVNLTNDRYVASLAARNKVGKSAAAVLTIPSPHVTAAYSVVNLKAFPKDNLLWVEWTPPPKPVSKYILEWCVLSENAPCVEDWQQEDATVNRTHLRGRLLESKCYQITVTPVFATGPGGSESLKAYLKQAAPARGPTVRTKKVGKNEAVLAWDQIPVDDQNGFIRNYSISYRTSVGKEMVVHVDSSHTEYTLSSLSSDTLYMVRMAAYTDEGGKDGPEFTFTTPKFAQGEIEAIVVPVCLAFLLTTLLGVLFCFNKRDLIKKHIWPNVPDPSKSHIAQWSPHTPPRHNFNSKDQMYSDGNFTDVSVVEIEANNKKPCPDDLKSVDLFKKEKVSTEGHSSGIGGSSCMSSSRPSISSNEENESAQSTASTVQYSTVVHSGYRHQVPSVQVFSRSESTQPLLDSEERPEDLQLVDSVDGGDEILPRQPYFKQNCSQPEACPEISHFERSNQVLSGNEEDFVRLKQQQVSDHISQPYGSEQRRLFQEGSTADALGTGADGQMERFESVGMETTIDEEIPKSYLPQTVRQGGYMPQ

binding result [1]: binds
binding result [2]: no binding
binding result [3]: binds
B1: Human CT-1 (conditioned medium from human 293 cells transfected with pRK5.hu.CT1) (ligand)
chain: MSRREGSLEDPQTDSSVSLLPHLEAKIRQTHSLAHLLTKYAEQLLQEYVQLQGDPFGLPSFSPPRLPVAGLSAPAPSHAGLPVHERLRLDAAALAALPPLLDAVCRRQAELNPRAPRLLRRLEDAARQARALGAAVEALLAALGAANRGPRAEPPAATASAASATGVFPAKVLGLRVCGLYREWLSRTEGDLGQLLPGGSA
notes: Not purified: tested as clarified conditioned medium (concentrated 10 fold and added at a 3-fold dilution for Hela cells; unconcentrated for WI-26 cells); also called human cardiotrophin-1; hCT-1
